US20220073621A1 (EUCURE BEIJING BIOPHARMA, published 2022)

B1: 7E4-H2K2-IgG1 (antibody, V domains shown)
VH: QVQLVQSGAEVKKPGASVKVSCKASGFKFTDYAIHWVRQAPGKSLEWMGVISIYYGEASYNQKFKDRVTLTVDTSASTAYMELSSLRSEDTAVYYCAREDYYGSSSYFDYWGQGTLVTVSS
VL: DNVLTQSPSFLSASVGDRVTMTCSASSSVSSSYLHWYQQKPGASPKPLIHRTSNLASGVPSRFSGSGSGTEFTLTISSLQPEDFATYYCQQWSGYPYTFGGGTKLEIK
B2: 7E4-H1K3-IgG1 (antibody, V domains shown)
VH: QVQLVQSGAEVKKPGASVKVSCKASGFKFTDYAIHWVRQAPGQSLEWMGVISIYYGEASYNQKFKDRVTLTVDTSASTAYMELSSLRSEDTAVYYCAREDYYGSSSYFDYWGQGTLVTVSS
VL: ENVLTQSPSFLSASVGDRVTMTCSASSSVSSSYLHWYQQKSGASPKPLIHRTSNLASGVPSRFSGSGSGTEYTLTISSVQPEDFATYYCQQWSGYPYTFGGGTKLEIK
B3: 7E4-H1K2-IgG1 (antibody, V domains shown)
VH: QVQLVQSGAEVKKPGASVKVSCKASGFKFTDYAIHWVRQAPGQSLEWMGVISIYYGEASYNQKFKDRVTLTVDTSASTAYMELSSLRSEDTAVYYCAREDYYGSSSYFDYWGQGTLVTVSS
VL: DNVLTQSPSFLSASVGDRVTMTCSASSSVSSSYLHWYQQKPGASPKPLIHRTSNLASGVPSRFSGSGSGTEFTLTISSLQPEDFATYYCQQWSGYPYTFGGGTKLEIK
B4: 7E4-H1K1-IgG1 (antibody, V domains shown)
VH: QVQLVQSGAEVKKPGASVKVSCKASGFKFTDYAIHWVRQAPGQSLEWMGVISIYYGEASYNQKFKDRVTLTVDTSASTAYMELSSLRSEDTAVYYCAREDYYGSSSYFDYWGQGTLVTVSS
VL: DNQLTQSPSFLSASVGDRVTITCSASSSVSSSYLHWYQQKPGAAPKPLIHRTSNLASGVPSRFSGSGSGTEFTLTISSLQPEDFATYYCQQWSGYPYTFGGGTKLEIK
B5: 23-2A6-mHvKv-IgG1-N297A (antibody, V domains shown)
VH: QVQLKESGPGLVAPSQSLSITCTVSGFSLTSYDISWIRQPPGKGLEWLGAIWTGGGTNYNSAFMSRLSISKDNSKSQVFLKMNSLQTDDTAIYYCVRDPYYYAMDYWGQGTSVTVSS
VL: DIQMNQSPSSLSASLGDTITITCHASQNLNVWLSWYQQKPGNIPKLLIYKASNLHTGVPSRFSGSGSGTGFTLTISSLQPEDIATYYCQQGQSYPRTFGGGTKLEIK
B6: 6A11-H2K3-IgG1 (antibody, V domains shown)
VH: EVQLVESGGGLVQPGGSLRLSCAASGFTFSSFGMHWVRQAPGKGLEWVSYISSGSNTIYYADTVKGRFTISRDNAKNSLYLQMNSLRAEDTAVYYCTRNGYDGWYAMDYWGQGTTVTVSS
VL: EIVLTQSPATLSASPGERATLSCSASSSVSYIHWFQQKPGQSPRRWIYDTSKLASGIPARFSGSGSGTDYTLTISSMEPEDFATYYCQQWSTNPFTFGQGTKLEIKR
B7: 6A11-H1K4-IgG1 (antibody, V domains shown)
VH: EVQLVESGGGLVQPGGSLRLSCAASGFTFSSFGMHWVRQAPGKGLEWVSYISSGSNTIYYADTVKGRFTISRDNAKNSLYLQMNSLRAEDTAVYYCARNGYDGWYAMDYWGQGTTVTVSS
VL: EIVLTQSPATLSASPGERATLSCSASSSVSYIHWFQQKPGQSPRRWIYDTSKLASGIPARFSGSGSGTSYTLTISSMEPEDAATYYCQQWSTNPFTFGQGTKLEIKR
B8: 6A11-H3K3-IgG1 (antibody, V domains shown)
VH: EVQLVESGGGLVQPGGSRRLSCAASGFTFSSFGMHWVRQAPGKGLEWVAYISSGSNTIYYADTVKGRFTISRDNAKNSLYLQMNSLRAEDTAVYYCTRNGYDGWYAMDYWGQGTTVTVSS
VL: EIVLTQSPATLSASPGERATLSCSASSSVSYIHWFQQKPGQSPRRWIYDTSKLASGIPARFSGSGSGTDYTLTISSMEPEDFATYYCQQWSTNPFTFGQGTKLEIKR
B9: 6A11-H1K3-IgG1 (antibody, V domains shown)
VH: EVQLVESGGGLVQPGGSLRLSCAASGFTFSSFGMHWVRQAPGKGLEWVSYISSGSNTIYYADTVKGRFTISRDNAKNSLYLQMNSLRAEDTAVYYCARNGYDGWYAMDYWGQGTTVTVSS
VL: EIVLTQSPATLSASPGERATLSCSASSSVSYIHWFQQKPGQSPRRWIYDTSKLASGIPARFSGSGSGTDYTLTISSMEPEDFATYYCQQWSTNPFTFGQGTKLEIKR
B10: 6A11-H3K4-IgG1 (antibody, V domains shown)
VH: EVQLVESGGGLVQPGGSRRLSCAASGFTFSSFGMHWVRQAPGKGLEWVAYISSGSNTIYYADTVKGRFTISRDNAKNSLYLQMNSLRAEDTAVYYCTRNGYDGWYAMDYWGQGTTVTVSS
VL: EIVLTQSPATLSASPGERATLSCSASSSVSYIHWFQQKPGQSPRRWIYDTSKLASGIPARFSGSGSGTSYTLTISSMEPEDAATYYCQQWSTNPFTFGQGTKLEIKR
B11: 6A11-H4K3-IgG1 (antibody, V domains shown)
VH: EVQLVESGGGLVQPGGSRRLSCAASGFTFSSFGMHWVRQAPGKGLEWVAYISSGSNTIYYADTVKGRFTISRDNPKNSLYLQMNSLRAEDTAIYYCTRNGYDGWYAMDYWGQGTTVTVSS
VL: EIVLTQSPATLSASPGERATLSCSASSSVSYIHWFQQKPGQSPRRWIYDTSKLASGIPARFSGSGSGTDYTLTISSMEPEDFATYYCQQWSTNPFTFGQGTKLEIKR
B12: 6A11-H4K4-IgG1 (antibody, V domains shown)
VH: EVQLVESGGGLVQPGGSRRLSCAASGFTFSSFGMHWVRQAPGKGLEWVAYISSGSNTIYYADTVKGRFTISRDNPKNSLYLQMNSLRAEDTAIYYCTRNGYDGWYAMDYWGQGTTVTVSS
VL: EIVLTQSPATLSASPGERATLSCSASSSVSYIHWFQQKPGQSPRRWIYDTSKLASGIPARFSGSGSGTSYTLTISSMEPEDAATYYCQQWSTNPFTFGQGTKLEIKR
B13: 6A11-H2K4-IgG1 (antibody, V domains shown)
VH: EVQLVESGGGLVQPGGSLRLSCAASGFTFSSFGMHWVRQAPGKGLEWVSYISSGSNTIYYADTVKGRFTISRDNAKNSLYLQMNSLRAEDTAVYYCTRNGYDGWYAMDYWGQGTTVTVSS
VL: EIVLTQSPATLSASPGERATLSCSASSSVSYIHWFQQKPGQSPRRWIYDTSKLASGIPARFSGSGSGTSYTLTISSMEPEDAATYYCQQWSTNPFTFGQGTKLEIKR
B14: 33-10C9-mHvKv-IgG1-N297A (antibody, V domains shown)
VH: QVQLQQPGAELVKPGSSVKLSCKASGYTFTTYYIYWVKQRPGQGLEWIGGINPYNGGTSFNEKFESKATLTVDISSSTAFMQLSSLTSEDSAVYYCTRDGNYVDYWGQGTTLTVSS
VL: QIVLTQSPAIMSASPGEKVTITCSASSTVSYVHWLQQKPDTSPKLWIYSTSNLASGVPARFSGSGSGTSYSLTISRMEAEDAATYYCQQRSSSPPTFGSGTKLEIK

target: T1, hPD-L1-His (human, UniProt Q9NZQ7 19-238); assay: SPR (Biacore T200), antibody on Protein A chip, hPD-L1-His injected, 1:1 fit
T1 construct: Bought protein; also called hPD-L1-His (manufactured by Edison); not shown: His tag
T1 sequence (Q9NZQ7 19-238 limits assumed): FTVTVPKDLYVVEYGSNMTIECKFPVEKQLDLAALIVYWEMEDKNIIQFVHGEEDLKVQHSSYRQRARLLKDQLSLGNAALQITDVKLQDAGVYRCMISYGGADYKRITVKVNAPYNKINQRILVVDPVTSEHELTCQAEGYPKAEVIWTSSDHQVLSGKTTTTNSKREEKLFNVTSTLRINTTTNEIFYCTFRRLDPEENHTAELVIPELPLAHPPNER
Description: Subsequently, the binding affinity of the anti-PD-L1 chimeric antibody, humanized antibody, and marketed control antibody to hPD-L1-His (manufactured by Edison) were determined by surface plasmon resonance (Biacore T200 biosensor, Biacore, INC, Piscataway N.J.) equipped with pre-immobilized Protein A sensor chips.
The detection results were read after the chip was regenerated with pH 2.0 glycine (30 μl/min, 10-20 s). Kinetic association rates (kon) and dissociation rates (koff) were obtained simultaneously by fitting the data globally to a 1:1 Langmuir binding model (Karlsson, R. Roos, H. Fagerstam, L. Petersson, B., 1994. Methods Enzymology 6. 99-110) using Biacore T200 Evaluation Software 3.0. Affinities were deduced from the quotient of the kinetic rate constants (KD=koff/kon).

Point of comparison: B7, Kd 8.29 nM. Against it:
- B1 — 2.6-fold higher, 21.9 nM
- B2 — 1.6-fold higher, 13.3 nM
- B3 — 2.4-fold higher, 19.8 nM
- B4 — 3.2-fold higher, 26.5 nM
- B5 — 1.8-fold lower, 4.64 nM
- B6 — within 1.5-fold, 8.07 nM
- B8 — 1.7-fold lower, 4.91 nM
- B9 — within 1.5-fold, 7.8 nM
- B10 — within 1.5-fold, 6.52 nM
- B11 — within 1.5-fold, 7.09 nM
- B12 — within 1.5-fold, 9.59 nM
- B13 — within 1.5-fold, 7.01 nM
- B14 — 5.2-fold lower, 1.6 nM

Point of comparison: B5, koff 0.00266 s⁻¹. Against it:
- B1 — within 1.5-fold, 0.0027 s⁻¹
- B2 — 1.6-fold lower, 0.0017 s⁻¹
- B3 — within 1.5-fold, 0.0025 s⁻¹
- B4 — within 1.5-fold, 0.00313 s⁻¹
- B6 — 2-fold lower, 0.0013 s⁻¹
- B7 — 2.1-fold lower, 0.00124 s⁻¹
- B8 — 2-fold lower, 0.0013 s⁻¹
- B9 — 2.4-fold lower, 0.00113 s⁻¹
- B10 — 1.6-fold lower, 0.00168 s⁻¹
- B11 — 1.6-fold lower, 0.00165 s⁻¹
- B12 — within 1.5-fold, 0.002 s⁻¹
- B13 — 1.7-fold lower, 0.00153 s⁻¹
- B14 — 14-fold lower, 0.000196 s⁻¹

Point of comparison: B14, kon 122000 M⁻¹ s⁻¹. Against it:
- B1 — within 1.5-fold, 123000 M⁻¹ s⁻¹
- B2 — within 1.5-fold, 128000 M⁻¹ s⁻¹
- B3 — within 1.5-fold, 126000 M⁻¹ s⁻¹
- B4 — within 1.5-fold, 118000 M⁻¹ s⁻¹
- B5 — 4.7-fold higher, 573000 M⁻¹ s⁻¹
- B6 — within 1.5-fold, 162000 M⁻¹ s⁻¹
- B7 — within 1.5-fold, 149000 M⁻¹ s⁻¹
- B8 — 2.2-fold higher, 265000 M⁻¹ s⁻¹
- B9 — within 1.5-fold, 145000 M⁻¹ s⁻¹
- B10 — 2.1-fold higher, 258000 M⁻¹ s⁻¹
- B11 — 1.9-fold higher, 233000 M⁻¹ s⁻¹
- B12 — 1.7-fold higher, 208000 M⁻¹ s⁻¹
- B13 — 1.8-fold higher, 218000 M⁻¹ s⁻¹
